Consider two compounds from patent US20170290925A1, “Conjugates And Conjugating Reagents” (priority 2014, published 2017).

Where a SMILES comes first, the peptide text is derived from it. [ ]: non-standard residue; d: D form. The star is where a group is joined. Dolaproine = CO[C@@H]([C@@H]1CCCN1)[C@@H](C)C(=O)O; Dil = CC[C@H](C)[C@H](NC)[C@@H](CC(=O)O)OC; X1 = C[C@@H](N*)[C@@H](O)c1ccccc1; NMeV = CN[C@H](C(=O)O)C(C)C

A short description of data set [1]: In vivo pharmacokinetics in rats, average DAR by CD30 affinity capture and HIC. Also noted: species or system Sprague-Dawley rats. The note with it: single dose 7 mg/kg IV, period of 850 h. How it is done:
(§1) Brentuximab conjugate 10 was used in this study as the ADC with a pendant PEG group. Brentuximab conjugate 11 was used as a comparator with a non-pendant PEG group.
(§2) In vivo pharmacokinetics in rats. Sprague-Dawley rats (3 rats per group) with an average weight of 200 g were treated with either 10, 11 or Adcetris®, via the tail vein (IV, bolus) at a single dose of 7 mg/kg. Serial sampling of 100 μL blood was performed before dosing and subsequently at 30 min, 24 h, 48 h, 7 d, 14 d and 35 d post-dosing respectively. Plasma was prepared from fresh blood samples and frozen at −80° C. until analysis.
CD30 affinity capture for average DAR determination Affinity capture was performed using streptavidin coated magnetic beads (Dynabeads-Streptavidin T1, Life Technologies). […] 500 1AL of the plasma sample in PBS was added to the CD30-coated beads and incubated overnight at 4° C. and finally washed using PBS. Captured antibodies were eluted using acidic elution buffer for 5 minutes at 4° C. […] Eluted samples were further mixed with HIC loading buffer and analysed using hydrophobic interaction chromatography with UV detection (HIC-UV).
Hydrophobic interaction chromatography for average DAR determination. Affinity captured ADCs were analysed using hydrophobic interaction chromatography in order to determine the average drug to antibody ratio (DAR). […]

Data set [2] is described as follows: In vivo pharmacokinetics in rats, total (anti-CD30 antibody) ELISA. Also noted: species or system Sprague-Dawley rats. The following applies: single dose 7 mg/kg IV, period of 850 h. As to the method: as §1, §2
Total (anti-CD30 antibody) ELISA. Total brentuximab antibody content from plasma samples was quantified using ELISA technology. Briefly, Maxisorp™ 96 well plates (Nunc/Fisher) were coated with recombinant human CD30, (Sino Biological Inc, 2.5 μg/mL in diluent) and incubated at 4° C. overnight. Plasma samples were diluted to ensure that the unknown ADCs fell within the linear range of the sigmoidal standard calibration curve. […]
IgG, (Promega) was added to the plate and the samples were incubated for 1 hour at room temperature on a shaker at 350 rpm. […] The assay was stopped with 100 μL of 0.5 M H2SO4 and read at UV λ=[…] using the plate reader. Data were plotted and evaluated in GraphPad Prism 5 and Microsoft Excel.
Background: In an ELISA, binding on a coated surface is turned into a signal by an enzyme label.

The test system of data set [3] is CD30-positive Karpas 299 cell line. Kind of data set: In vitro cell viability assay (CellTiter Glo) in Karpas 299. In kind it is cell-based, human. The following applies: Karpas 299 cells, 72 h incubation, conjugates DAR 4. As to the method:
Purified brentuximab drug conjugates 10 and 11 with a drug to antibody ratio (DAR) of four as described in Example 6, were evaluated in vitro by measuring the inhibitory effect on cell growth of (CD30)-positive cell line Karpas 299 using the method described below.
Loss of tumour cell viability following treatment with cytotoxic drugs or ADCs in vitro can be measured by growing cell lines in the presence of increasing concentrations of drugs or ADCs and quantifying the loss of proliferation or metabolic activity using CellTiter Glo® Luminescence reagent (Promega Corp. Technical Bulletin TB288; Lewis Phillips G. D, Cancer Res 2008; 68:9280-9290). […]
The human T cell lymphoma cell line Karpas 299 was obtained from Dr Abraham Karpas at the University of Cambridge. […] CD30-positive Karpas 299 were counted using a Neubauer haemocytometer and adjusted to a cell density of 5×10^4/mL. […]
The cell viability assay was carried out using the Cell-Titer Glo® Luminescence reagent, as described by the manufacturer's instructions, (Promega Corp. Technical Bulletin TB288; Lewis Phillips G. D, Cancer Res 2008; 68:9280-9290). […] Luminescence was recorded using a plate reader (e.g. MD Spectramax M3 plate reader), and data subsequently analysed using a four parameter non-linear regression model. […]

With Adcetris®, the “Rate of drug loss from the conjugate (average DAR)” value in data set [1] is reported as “much faster rate of drug dissociation”. The “Rate of clearance from the circulation (total antibody)” value in data set [2] is listed as “cleared more quickly”. Turning to `CC[C@H](C)[C@@H]([C@@H](CC(=O)N1CCC[C@H]1[C@H](OC)[C@@H](C)C(=O)N[C@H](C)[C@@H](O)c1ccccc1)OC)N(C)C(=O)[C@@H](NC(=O)[C@@H](NC)C(C)C)C(C)C` [MMAE] (H-[NMeV]V[Dil][Dolaproine]-X1), in data set [3], the IC50 (in general, the concentration that gives 50% inhibition) worked out at 0.105 nM.
